From article PMC12154155

Assays:
[1] = molecular target: RsbS S56A, Listeria monocytogenes (Listeria monocytogenes); experiment: cryo-EM structure; stressosomes assembled from purified RsbR, RsbS and RsbT (1:2:5 molar ratio, overnight, 4 °C), purified on Superose 6 in 20 mM Tris-HCl pH 8.5, 250 mM NaCl, 1 mM DTT, 1 mM ADP; 50-150 ug/mL on GO-amino grids; C1, no symmetry imposed; only RsbR and RsbS modelled
[2] = molecular target: RsbS (wild type), Listeria monocytogenes (Listeria monocytogenes); experiment: as above

Substance | stoichiometry N [1] | stoichiometry N [2]
RsbR (wild type), Listeria monocytogenes (from UniProt Q8GD19 1-278) (natural protein) | 2 RsbR to RsbS | –
RsbR T175A, Listeria monocytogenes (natural protein) | – | 2 RsbR to RsbS
RsbR T209A, Listeria monocytogenes (natural protein) | – | 3 RsbR to RsbS
RsbR T209E, Listeria monocytogenes (natural protein) | – | 1 RsbR to RsbS
